What all share (assay): SPR
(In general: Surface plasmon resonance follows binding to a sensor surface in real time, without labels.)

Assay [1] concerns the target T1, human FcγRIIb receptor protein (R&D Systems) (human, UniProt P31994 46-217).
T1 construct: Bought protein injected over captured antibody in Biacore; also called CD32b
T1 sequence (looked up): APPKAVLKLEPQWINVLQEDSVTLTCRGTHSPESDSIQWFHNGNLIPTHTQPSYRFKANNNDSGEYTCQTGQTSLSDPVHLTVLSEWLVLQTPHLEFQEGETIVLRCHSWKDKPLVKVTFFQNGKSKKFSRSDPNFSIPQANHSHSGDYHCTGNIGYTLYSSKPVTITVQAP

Assay [2] deals with T2, human FcγRI receptor protein (R&D Systems) (human, UniProt P12314 16-288).
T2 construct: also called soluble FcγRI; solFcγRI

Assay [3] deals with T3, human FcγRIIa (131H), His- and GST-tagged (human, UniProt P12318 34-217).
T3 construct: also called H131 FcγRIIa; HIIa; not shown: 6xHis and GST tags of the pTT5 vector
T3 sequence (looked up): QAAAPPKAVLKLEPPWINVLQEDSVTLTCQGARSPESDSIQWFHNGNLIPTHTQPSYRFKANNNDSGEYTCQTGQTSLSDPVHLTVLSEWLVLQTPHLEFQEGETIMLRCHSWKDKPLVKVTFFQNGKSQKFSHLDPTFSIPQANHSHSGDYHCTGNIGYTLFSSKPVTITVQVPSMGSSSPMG

The target of assay [4] is T4, human FcγRIIa (131R), His- and GST-tagged (human, UniProt P12318 34-217).
T4 construct: Expressed in HEK293T cells, purified by nickel chromatography; also called R131 FcγRIIa; not shown: 6xHis and GST tags of the pTT5 vector
T4 sequence (looked up): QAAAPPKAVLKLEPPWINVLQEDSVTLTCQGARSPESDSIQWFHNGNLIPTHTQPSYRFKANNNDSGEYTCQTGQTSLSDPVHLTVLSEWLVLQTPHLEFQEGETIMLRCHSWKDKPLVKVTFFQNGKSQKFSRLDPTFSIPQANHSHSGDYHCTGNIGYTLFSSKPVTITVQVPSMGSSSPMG

For assay [5], the target named is T5, human FcγRIIIa (158V), His- and GST-tagged (human, UniProt P08637 17-208).
T5 construct: also called V158 FcγRIIIa; VIIIa; not shown: 6xHis and GST tags of the pTT5 vector

Assay [6] addresses T6, cynoFcγRIIb (Macaca fascicularis, UniProt A0A140HDP4).
T6 construct: extracellular region, C-terminal His- and GST-tag; also called cynomolgus monkey FcγRIIb
T6 sequence (receptor extracellular region): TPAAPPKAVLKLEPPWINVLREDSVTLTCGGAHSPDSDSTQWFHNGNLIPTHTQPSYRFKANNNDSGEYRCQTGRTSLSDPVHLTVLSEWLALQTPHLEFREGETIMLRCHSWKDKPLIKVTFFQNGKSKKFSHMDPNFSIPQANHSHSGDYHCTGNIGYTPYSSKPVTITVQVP

For assay [7], the target named is T7, mFcγRIIb (Mus musculus, UniProt P08101).
T7 construct: extracellular region, C-terminal His- and GST-tag; also called mouse FcγRII
T7 sequence (receptor extracellular region, looked up): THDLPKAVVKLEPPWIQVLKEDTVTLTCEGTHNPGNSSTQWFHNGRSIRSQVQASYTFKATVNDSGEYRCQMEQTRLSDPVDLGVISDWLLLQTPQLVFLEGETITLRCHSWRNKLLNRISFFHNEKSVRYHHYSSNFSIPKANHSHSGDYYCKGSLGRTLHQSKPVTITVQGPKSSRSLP

T2 sequence (P12314 16-288 limits assumed): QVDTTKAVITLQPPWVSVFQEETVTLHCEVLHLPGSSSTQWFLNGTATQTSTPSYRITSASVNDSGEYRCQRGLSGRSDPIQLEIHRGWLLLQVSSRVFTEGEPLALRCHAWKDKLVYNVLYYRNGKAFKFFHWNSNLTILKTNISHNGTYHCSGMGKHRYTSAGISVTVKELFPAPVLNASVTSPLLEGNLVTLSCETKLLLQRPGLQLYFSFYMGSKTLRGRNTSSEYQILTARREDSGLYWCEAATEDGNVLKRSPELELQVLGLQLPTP
T5 sequence (P08637 17-208 F176V): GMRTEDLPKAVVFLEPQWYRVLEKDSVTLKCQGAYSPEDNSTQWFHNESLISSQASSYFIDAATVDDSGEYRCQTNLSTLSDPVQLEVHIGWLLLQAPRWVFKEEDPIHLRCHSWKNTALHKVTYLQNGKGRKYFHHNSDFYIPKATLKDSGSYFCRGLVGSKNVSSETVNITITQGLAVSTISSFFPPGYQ

B1: G236D/S239D/S267E (antibody, human IgG1, kappa)
heavy: EVQLVESGGGLVKPGGSLKLSCAASGYTFTSYVMHWVRQAPGKGLEWIGYINPYNDGTKYNEKFQGRVTISSDKSISTAYMELSSLRSEDTAMYYCARGTYYYGTRVFDYWGQGTLVTVSSASTKGPSVFPLAPSSKSTSGGTAALGCLVKDYFPEPVTVSWNSGALTSGVHTFPAVLQSSGLYSLSSVVTVPSSSLGTQTYICNVNHKPSNTKVDKKVEPKSCDKTHTCPPCPAPELLDGPDVFLFPPKPKDTLMISRTPEVTCVVVDVEHEDPEVKFNWYVDGVEVHNAKTKPREEQYNSTYRVVSVLTVLHQDWLNGKEYKCKVSNKALPAPIEKTISKAKGQPREPQVYTLPPSREEMTKNQVSLTCLVKGFYPSDIAVEWESNGQPENNYKTTPPVLDSDGSFFLYSKLTVDKSRWQQGNVFSCSVMHEALHNHYTQKSLSLSPGK
light: DIVMTQSPATLSLSPGERATLSCRSSKSLQNVNGNTYLYWFQQKPGQSPQLLIYRMSNLNSGVPDRFSGSGSGTEFTLTISSLEPEDFAVYYCMQHLEYPITFGAGTKLEIKRTVAAPSVFIFPPSDEQLKSGTASVVCLLNNFYPREAKVQWKVDNALQSGNSQESVTEQDSKDSTYSLSSTLTLSKADYEKHKVYACEVTHQGLSSPVTKSFNRGEC
notes: HuAM4G7 anti-CD19 IgG1 (m1) with these Fc substitutions, EU index; copies: 2 + 2
With B1, the “Fold vs WT IgG1” value in assay [1] amounted to 84.8 fold; in assay [2] it was 0.0685 fold; in assay [3], 0.217 fold; in assay [4] it was 26.7 fold. In addition, the equilibrium dissociation constant (Kd) in assay [1] was determined as 17.3 nM; in assay [2], 4.81 nM; in assay [3], 2980 nM; in assay [4], 32.2 nM. For the same molecule, the binding result in assay [5] is given as “no binding”.

B2: L328F (antibody, human IgG1, kappa)
heavy: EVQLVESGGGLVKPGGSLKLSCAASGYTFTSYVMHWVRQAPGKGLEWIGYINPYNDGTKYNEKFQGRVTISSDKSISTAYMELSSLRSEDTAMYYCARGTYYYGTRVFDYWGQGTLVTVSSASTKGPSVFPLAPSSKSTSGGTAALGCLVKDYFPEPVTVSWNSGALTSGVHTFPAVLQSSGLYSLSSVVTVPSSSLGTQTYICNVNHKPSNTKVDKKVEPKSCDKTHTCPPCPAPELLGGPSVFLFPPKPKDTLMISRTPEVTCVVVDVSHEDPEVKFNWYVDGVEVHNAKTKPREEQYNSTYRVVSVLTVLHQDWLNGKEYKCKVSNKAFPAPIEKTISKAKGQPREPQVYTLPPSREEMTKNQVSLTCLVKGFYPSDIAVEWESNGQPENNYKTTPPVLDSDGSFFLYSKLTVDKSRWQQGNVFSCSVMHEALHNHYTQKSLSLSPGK
light: DIVMTQSPATLSLSPGERATLSCRSSKSLQNVNGNTYLYWFQQKPGQSPQLLIYRMSNLNSGVPDRFSGSGSGTEFTLTISSLEPEDFAVYYCMQHLEYPITFGAGTKLEIKRTVAAPSVFIFPPSDEQLKSGTASVVCLLNNFYPREAKVQWKVDNALQSGNSQESVTEQDSKDSTYSLSSTLTLSKADYEKHKVYACEVTHQGLSSPVTKSFNRGEC
notes: HuAM4G7 anti-CD19 IgG1 (m1) with this Fc substitution, EU index; copies: 2 + 2
As for B2, the Kd amounted to 541 nM in assay [1], 0.452 nM in assay [2], 166 nM in assay [4] and 58400 nM in assay [5].

B3: G236D/S267E/H268E (antibody, human IgG1, kappa)
heavy: EVQLVESGGGLVKPGGSLKLSCAASGYTFTSYVMHWVRQAPGKGLEWIGYINPYNDGTKYNEKFQGRVTISSDKSISTAYMELSSLRSEDTAMYYCARGTYYYGTRVFDYWGQGTLVTVSSASTKGPSVFPLAPSSKSTSGGTAALGCLVKDYFPEPVTVSWNSGALTSGVHTFPAVLQSSGLYSLSSVVTVPSSSLGTQTYICNVNHKPSNTKVDKKVEPKSCDKTHTCPPCPAPELLDGPSVFLFPPKPKDTLMISRTPEVTCVVVDVEEEDPEVKFNWYVDGVEVHNAKTKPREEQYNSTYRVVSVLTVLHQDWLNGKEYKCKVSNKALPAPIEKTISKAKGQPREPQVYTLPPSREEMTKNQVSLTCLVKGFYPSDIAVEWESNGQPENNYKTTPPVLDSDGSFFLYSKLTVDKSRWQQGNVFSCSVMHEALHNHYTQKSLSLSPGK
light: DIVMTQSPATLSLSPGERATLSCRSSKSLQNVNGNTYLYWFQQKPGQSPQLLIYRMSNLNSGVPDRFSGSGSGTEFTLTISSLEPEDFAVYYCMQHLEYPITFGAGTKLEIKRTVAAPSVFIFPPSDEQLKSGTASVVCLLNNFYPREAKVQWKVDNALQSGNSQESVTEQDSKDSTYSLSSTLTLSKADYEKHKVYACEVTHQGLSSPVTKSFNRGEC
notes: as for B1
Regarding B3, the “Fold vs WT IgG1” value in assay [1] was 110 fold; in assay [2] it was 0.0902 fold; in assay [3], 0.103 fold; in assay [4], 29.9 fold. In addition, the Kd in assay [1] was determined as 13.4 nM; in assay [2], 3.65 nM; in assay [3], 6300 nM; in assay [4] it was 28.7 nM. Further, in assay [5], the binding result is “no binding”.

B4: L234W (antibody, human IgG1, kappa)
heavy: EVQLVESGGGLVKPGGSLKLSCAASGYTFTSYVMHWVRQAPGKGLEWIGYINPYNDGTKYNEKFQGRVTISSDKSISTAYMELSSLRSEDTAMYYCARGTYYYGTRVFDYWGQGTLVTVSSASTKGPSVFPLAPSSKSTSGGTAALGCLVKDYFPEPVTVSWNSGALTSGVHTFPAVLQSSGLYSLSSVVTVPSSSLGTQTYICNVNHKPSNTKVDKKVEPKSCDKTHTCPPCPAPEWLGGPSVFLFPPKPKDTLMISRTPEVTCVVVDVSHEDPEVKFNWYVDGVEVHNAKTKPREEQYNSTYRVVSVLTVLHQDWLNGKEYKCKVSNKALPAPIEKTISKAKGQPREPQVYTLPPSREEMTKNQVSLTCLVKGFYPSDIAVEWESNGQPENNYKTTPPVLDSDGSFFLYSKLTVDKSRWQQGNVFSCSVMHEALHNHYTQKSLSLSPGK
light: DIVMTQSPATLSLSPGERATLSCRSSKSLQNVNGNTYLYWFQQKPGQSPQLLIYRMSNLNSGVPDRFSGSGSGTEFTLTISSLEPEDFAVYYCMQHLEYPITFGAGTKLEIKRTVAAPSVFIFPPSDEQLKSGTASVVCLLNNFYPREAKVQWKVDNALQSGNSQESVTEQDSKDSTYSLSSTLTLSKADYEKHKVYACEVTHQGLSSPVTKSFNRGEC
notes: as for B2
As to B4, the Kd was determined as 1770 nM in assay [1], 10.5 nM in assay [2], 1160 nM in assay [3] and 6590 nM in assay [5].

B5: G237N/S267E (antibody, human IgG1, kappa)
heavy: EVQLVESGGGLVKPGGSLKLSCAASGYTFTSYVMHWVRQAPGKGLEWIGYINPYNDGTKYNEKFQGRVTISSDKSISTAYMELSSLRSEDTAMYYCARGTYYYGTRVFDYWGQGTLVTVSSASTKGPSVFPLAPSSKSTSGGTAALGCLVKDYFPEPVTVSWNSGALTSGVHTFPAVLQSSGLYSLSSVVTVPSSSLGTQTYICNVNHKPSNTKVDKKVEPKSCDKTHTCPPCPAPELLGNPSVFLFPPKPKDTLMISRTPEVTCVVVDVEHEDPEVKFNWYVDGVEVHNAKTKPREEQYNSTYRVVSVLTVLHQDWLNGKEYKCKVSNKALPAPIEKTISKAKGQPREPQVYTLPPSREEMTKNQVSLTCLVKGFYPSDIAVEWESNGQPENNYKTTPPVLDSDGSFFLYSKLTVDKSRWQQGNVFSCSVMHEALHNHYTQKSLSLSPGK
light: DIVMTQSPATLSLSPGERATLSCRSSKSLQNVNGNTYLYWFQQKPGQSPQLLIYRMSNLNSGVPDRFSGSGSGTEFTLTISSLEPEDFAVYYCMQHLEYPITFGAGTKLEIKRTVAAPSVFIFPPSDEQLKSGTASVVCLLNNFYPREAKVQWKVDNALQSGNSQESVTEQDSKDSTYSLSSTLTLSKADYEKHKVYACEVTHQGLSSPVTKSFNRGEC
notes: as for B1
For the molecule B5, the “Fold vs WT IgG1” value in assay [1] was determined as 40.5 fold; in assay [2] it was 0.101 fold; in assay [4], 61.5 fold. Besides, the Kd in assay [1] worked out at 36.2 nM; in assay [2], 3.25 nM; in assay [4], 14 nM. Also, the binding result in assay [5] was “no binding”.

B6: L234W/S239E/S267E (antibody, human IgG1, kappa)
heavy: EVQLVESGGGLVKPGGSLKLSCAASGYTFTSYVMHWVRQAPGKGLEWIGYINPYNDGTKYNEKFQGRVTISSDKSISTAYMELSSLRSEDTAMYYCARGTYYYGTRVFDYWGQGTLVTVSSASTKGPSVFPLAPSSKSTSGGTAALGCLVKDYFPEPVTVSWNSGALTSGVHTFPAVLQSSGLYSLSSVVTVPSSSLGTQTYICNVNHKPSNTKVDKKVEPKSCDKTHTCPPCPAPEWLGGPEVFLFPPKPKDTLMISRTPEVTCVVVDVEHEDPEVKFNWYVDGVEVHNAKTKPREEQYNSTYRVVSVLTVLHQDWLNGKEYKCKVSNKALPAPIEKTISKAKGQPREPQVYTLPPSREEMTKNQVSLTCLVKGFYPSDIAVEWESNGQPENNYKTTPPVLDSDGSFFLYSKLTVDKSRWQQGNVFSCSVMHEALHNHYTQKSLSLSPGK
light: DIVMTQSPATLSLSPGERATLSCRSSKSLQNVNGNTYLYWFQQKPGQSPQLLIYRMSNLNSGVPDRFSGSGSGTEFTLTISSLEPEDFAVYYCMQHLEYPITFGAGTKLEIKRTVAAPSVFIFPPSDEQLKSGTASVVCLLNNFYPREAKVQWKVDNALQSGNSQESVTEQDSKDSTYSLSSTLTLSKADYEKHKVYACEVTHQGLSSPVTKSFNRGEC
notes: as for B1
In the case of B6, the “Fold vs WT IgG1 (Kd)” value was 2.25 fold in assay [6] and 0.761 fold in assay [7]. Moreover, the entries for the “Fold vs WT IgG1” value in assay [1] and in assay [4] were 42.3 fold and 98.5 fold, respectively. Besides, the results for the Kd in assay [1] and in assay [4] were 34.7 nM and 8.72 nM, respectively.

Usually Kd stands for the concentration at which binding is half-saturated. Lower therefore signals tighter binding.
